Broadly, the koff is the rate constant with which the complex falls apart. What is called kon is the second-order rate constant of association.

For assay [1], the target named is T1, FC5DIE3IR recombinant protein.
T1 construct: Made in CHO-3E7 cells; also called FC5DIE31R; FC5DIE3R
The assay can be described thus: phage ELISA, phage supernatant on coated FC5DIE3IR or PBS wells, anti-M13-HRP, TMB. How it is done: FIG. 25A Phages were rescued from individual colonies, selected from the fourth round of panning and grown overnight at 37° C. Wells of a Nunc microtiter plate were coated with FC5DIE3IR and FC5 proteins at 5 μg/ml in PBS. […] Binding was detected with TMB substrate and A450 was measured using an ELISA plate reader.
Additional rounds (up to 3) of panning were performed by coating the ELISA plate with the same proteins and using the amplified phages after each round of panning as described above. After four rounds of panning, 77 randomly picked colonies were grown and subjected to monoclonal phage ELISA screening as described previously (Arbabi-Ghahroudi et al., 2009) except that 5 μg/ml of FC5DIE3IR and FC5 VHH (the negative control) were coated onto a microtiter plate. All positive clones specifically binding to FC5DIE3IR were sequenced and unique VHH sequences were selected for sub-cloning, large-scale expression, and purification.
(ELISA stands for enzyme-linked immunosorbent assay.)

Another assay concerns the target human Nav1.7 polypeptide (human, UniProt Q15858 1-1988). The assay can be described thus: cell-based or functional assay.
Assay [2] has as its target T2, VHH FC5.
T2 construct: put together from its FR and CDR entries; also called FC5-VHH; FC5 control
The assay can be described thus: phage ELISA of immune-library colonies, phage supernatant on coated FC5DIE3IR or FC5, anti-M13-HRP, TMB.

Assay [3] concerns the target T1, FC5DIE3IR recombinant protein. The assay can be described thus: SPR (Biacore T200), single cycle kinetics, VHH flowed over immobilized FC5DIE3IR, 25 C. An excerpt:
(§1) Surface Plasmon Resonance for VHH antibodies. […] Monomeric VHH fractions were collected and protein concentration determined by measuring A280 measurement. Using a Biacore T200 instrument (GE Healthcare), approximately 500-1000 RUs of FC5DIE3IR, FC5 and an irrelevant VHH (2A3-H4) were immobilized on a CM5 Series S sensor chip (GE Healthcare) at pH 4.0 using standard amine coupling according to the manufacturer's instructions (GE Healthcare). […] Surfaces were regenerated by washing with a 120 s pulse of 10 mM glycine pH 1.5. Data were analyzed with Biacore T200 Software v 3.0 and affinities determined using steady state binding or a 1:1 binding model.
(§2) Surface Plasmon Resonance (SPR).
On the technique in general: SPR reads the build-up and loss of mass on a sensor chip optically.

Assay [4] has the same target. The assay can be described thus: ELISA on coated FC5DIE3IR, serial dilutions of purified mAb; fit One site - Specific binding with Hill slope. How it is done:
(§3) Screening. Hybridoma supernatants were screened by ELISA to detect specific binders. To this end, 96-well half-area plates (Costar #3690) were coated with 25 μl of FC5DIE3IR or FC5-VHH or FC5-hFc-1X0 at 5 μg/ml in PBS and incubated overnight at 4° C. Microplates were washed 3 times with PBS, blocked with PBS-BSA 1%, and 25 μl of hybridoma supernatants were added and incubated at 37° C., 5% CO₂ for 2 hours. […] After 4 washes with PBS-Tween 20 0.05%, 25 μl of a 1 mg/ml pNPP substrate solution was added and further incubated for one hour at 37° C.
(§4) Evaluation of apparent affinity in ELISA. Purified antibodies were assessed for their binding activity by ELISA in a dose-dependent binding curve. Serial 1/3 dilutions of purified mAbs starting at 120 nM were applied onto wells and ELISA was performed as described above (screening section). The data were analyzed with GraphPad Prism software using one-site specific binding-with Hill slope non-linear regression curve fit model to determine Bₘₐₓ (maximum specific binding) and Kdₐₚₚ (concentration needed to achieve a half-maximum binding at equilibrium) for each mAb tested.

Assay [5] has the same target. The assay can be described thus: ELISA on coated FC5DIE3IR, serial dilutions of purified mAb, OD 405 nm; fit One site - Specific binding with Hill slope; apparent Kd in the unit of the concentration axis (nM), the table itself prints no unit. How it is done:
as §3, §4

The target of a further assay is T3, peptide #40a (40 aa) (human).
T3 construct: Custom-synthesized (Biomatik); also called pep #40a; P40a
T3 peptide: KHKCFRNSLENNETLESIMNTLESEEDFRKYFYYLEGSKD
The assay can be described thus: ELISA on coated peptide or FC5DIE3IR, mAb detected with HRP anti-mouse Fc, Abs 450nm. How it is done: (§5) The peptides were custom-synthesized (Biomatik) and tested for antibody binding by ELISA. […] The wells were blocked with 1% BSA in TBS-T for 30 min and then incubated with 1:1000 dilution of anti-hNaᵥ1.7 mAb at room temperature (RT) for one hr.

In a further assay the target is T4, peptide #3 (30 aa) (human).
T4 construct: Custom-synthesized (Biomatik); also called pep #3; P3
T4 sequence (peptide, as listed by the source): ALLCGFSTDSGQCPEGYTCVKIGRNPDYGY
The description is as above. As for the experimental part: as §5

For assay [6], the target named is T2, VHH FC5. The assay can be described thus: ELISA, hybridoma supernatant on coated purified FC5-VHH. As for the experimental part:
as §3

Assay [7] addresses T2, VHH FC5. The assay can be described thus: SPR, single cycle kinetics, Fc-captured mAb, FC5 flowed, 25 C. How it is done: HBS-EP running buffer used for SPR experiments. […] Test binding experiments of FC5 control and FC5DIE3IR involved flowing 1 μM concentrations of SEC-pure material over the mAb surface at a flow rate of 30 μl/min for 5 min. Surfaces could be regenerated using 10 mM glycine, pH 1.7, with a 120 sec pulse at 20 μl/min. All SPR experiments were evaluated with Biacore T200 Software v 3.0. […] Regeneration conditions were the same as above. Data were fit to a 1:1 binding model and analyzed using the Biacore T200 Software v3.0.

In assay [8] the target is T1, FC5DIE3IR recombinant protein. The assay can be described thus: SPR (Biacore T200), VHH flowed over immobilized FC5DIE3IR, steady state fit, 25 C.
Description: as §1, §2

Assay [9] has as its target T2, VHH FC5. The assay can be described thus: phage ELISA of immune-library colonies, phage supernatant on coated FC5DIE3IR or FC5, anti-M13-HRP, TMB. The source holds these as a separate data set.
The target of a further assay is T5, peptide #2 (30 aa) (human).
T5 construct: Custom-synthesized (Biomatik); also called pep #2; P2
T5 peptide: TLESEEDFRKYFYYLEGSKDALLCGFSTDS
The assay can be described thus: ELISA on coated peptide or FC5DIE3IR, mAb detected with HRP anti-mouse Fc, Abs 450nm. As for the experimental part: as §5

The next assay concerns the target T6, peptide #2b (20 aa) (human).
T6 construct: Custom-synthesized (Biomatik); also called pep #2b; P2b
T6 peptide: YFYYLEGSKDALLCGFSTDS
The assay can be described thus: ELISA on coated P2b, mAb at the dilutions 1:1000, 1:5000 and 1:10000, Abs 450nm. How it is done: as §5

In a further assay the target is T7, peptide #2a (20 aa) (human).
T7 construct: Custom-synthesized (Biomatik); also called pep #2a; P2a
T7 peptide: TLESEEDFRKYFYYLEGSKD
The assay can be described thus: ELISA on coated P2a, mAb at the dilutions 1:1000, 1:5000 and 1:10000, Abs 450nm. How it is done: as §5

T2 sequence (VHH, as listed by the source): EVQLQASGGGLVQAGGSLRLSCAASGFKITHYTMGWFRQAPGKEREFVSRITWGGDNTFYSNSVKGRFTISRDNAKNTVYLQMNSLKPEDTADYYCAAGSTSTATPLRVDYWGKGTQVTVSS

B1: VHH DI-H (VHH)
VHH: QVKLEESGGGLVQAGESLRLSCVNSGSTFSIYAMGWYRQAPGKQRELVAAISSVGRTNYADSVKGRFTISRAGAKNTVYLHMNNLKPEDTAVYSCITYYQNAMYFGQGTQVTVSS
notes: From the naive LAC-M library; soluble tagged monomer in protein ELISA and patch clamp; also called clone H; not shown: 6xHis and c-Myc tags on the soluble monomer
Turning to B1, in assay [1], the binding result is “binds”. Further, the “reduction of the amplitude of the Nav1.7 currents at 1 µM” value (“reduction” for short) with human Nav1.7 polypeptide is 1.72%.

B2: VHH DI-B (VHH)
VHH: QVKLEESGGGLVPPGESLRLTCAATGQTASVYEMAWFRRAPEKEQVYVASINWRDGDTQYHNSVKGRFIISRDNAKNTVFLQMNSLTPEDTAIYYCAARKELAGYDYWGQGTQVTVSS
notes: From the naive LAC-M library; soluble tagged monomer in protein ELISA and patch clamp; also called clone B; not shown: 6xHis and c-Myc tags on the soluble monomer
For B2, the binding result in assay [1] is on record as “binds”. Further, the “reduction” value with human Nav1.7 polypeptide was found to be 1.73%.

B3: VHH DI-28 (VHH)
VHH: QVQLVESGGGLVQAGGSLRLSCAASGRTFSSSGMGWFRQAPGKDRELVAGISWSGDSAYYANSVAGRFTISRDNINNTVYLQMNSLKPEDTAVYYCAARQGGRNYATSPREYDYWGQGTQVTVSS
notes: From the FC5DIE3IR llama immune library; soluble tagged monomer in SPR; not shown: cmyc and His6 tags at the C-terminus
For the molecule B3, in the assay with VHH FC5 [2], the binding result is recorded as “no binding”. In assay [3], the Kd worked out at 4.44 nM, the koff worked out at 0.00205 s⁻¹ and the kon is 461000 M⁻¹ s⁻¹.

B4: VHH DI-E (VHH)
VHH: QVKLEESGGGLVQPGGSLRLSCAASEFTFSSSWGHWVRQAPGKGLKWVSSINSGGEGTYYADSVKGRFTISRDNGKNTLYLEMNSLKSEDTAVYYCTSASGAWGQGIQVTVSS
notes: From the naive LAC-M library; also called clone E; not shown: 6xHis and c-Myc tags on the soluble monomer
For the molecule B4, the binding result in [1] is “binds”.

B5: anti-hNav1.7 mAb 1H5 (antibody, V domains shown)
VH: EVKLVESGGGLVKPGGSLKLSCAASGFTFRSYAMSWVRQTPEKGLEWVASISSGGSTYYPDSVKGRFTISRDNAGNILYLQMSSLRSEDTAMYYCARGYDGYYERIWYYAMDYWGQGTSVTVSS
VL: DIVMTQSQKFMSTSVGDRVTVSCKASQNVGTIVAWYQQKPGQSPKALIYSASYRFSGVPDRFTGSGSGTDFTLTISNVQSEDLAEYFCQQYNTYPLTFGSGTKLEIK
On to B5, for which, in assay [4], the Bmax was determined as 0.583 OD405 nm. Further, the Kd in [5] came to 1.6 nM. In addition, the values for the binding result with peptide #40a (40 aa), with peptide #3 (30 aa) and with VHH FC5 [7] were “binds”, “binds” and “no binding”, respectively. In addition, the “ELISA signal (OD 405 nm)” value with VHH FC5 [6] was determined as 0.042 OD 405 nm.

B6: VHH DI-4 (VHH)
VHH: QVQLVESGGGLVQPGGSLRLSCAASGFTFSNYWMYWVRQAPGKGLERVSSIYISGGNTYYADSVKGRFTISRDNAKNTLYLQMNSLKSEDTAVYYCVKGDTFGGMDYWGKGTQVTVSS
notes: as for B3
In the case of B6, in assay [8], the Kd came to 2250 nM. In the assay with VHH FC5 [9], the binding result is “no binding”.

B7: VHH DI-A (VHH)
VHH: QVQLVESGGGLVQPGGSLRLSCAASGRTISSFTMGWFRQAPGAEREFVAAISRSGSSTVYAGSVKGRFTISRDNAKNTVYLQMNSLKPEDTAVYYCNAVITEPLYKTDDSYWGQGTQVTVSS
notes: From the naive LAC-M library; soluble tagged monomer in protein ELISA and patch clamp; also called clone A; not shown: 6xHis and c-Myc tags on the soluble monomer
Regarding B7, in [1], the binding result is recorded as “binds”. Moreover, the “reduction” value with human Nav1.7 polypeptide was 2.73%.

B8: VHH DI-C (VHH)
VHH: QVKLEESGGGLVQPGESLRLSCVGSGFNFRIQAMAWFRQAPGKEREFVASISGSGATTDHADSVKGRFAISKDNARDTMYLQMNNLKPEDTAVYYCYAISQHVPPYHYWGQGTQVTVSS
notes: From the naive LAC-M library; soluble tagged monomer in protein ELISA and patch clamp; also called clone C; not shown: 6xHis and c-Myc tags on the soluble monomer
With B8, in assay [1], the binding result is on record as “binds”. Moreover, the “reduction” value with human Nav1.7 polypeptide turned out to be 0.46%.

B9: anti-hNav1.7 mAb 1B6 (antibody, V domains shown)
VH: QVQLKESGPGLVAPSQSLSITCTVSGFSLSRYNVHWVRQPPGKGLEWLGMIWGGGSTDYNSALKSRLSISKDNSKSQVFLKMNSLQTDDTAMYYCARNGANWDWFAYWGQGTLVTVSA
VL: not shown
notes: also called IB6; F236-1B6
As to B9, the Bmax in assay [4] was 1.07 OD405 nm. Also, the Kd in [5] was determined as 1.33 nM. Also, the binding result in the assay with peptide #40a (40 aa) was “binds”; with peptide #2 (30 aa), “binds”; with peptide #3 (30 aa), “no binding”; with peptide #2b (20 aa), “no binding (tested: 1:1000 dilution)”; in the assay with VHH FC5 [7], “no binding”; with peptide #2a (20 aa), “no binding (tested: 1:1000 dilution)”. In addition, the “ELISA signal (OD 405 nm)” value in the assay with VHH FC5 [6] was 0.028 OD 405 nm.

(Values after patent publication US20210206842A1 (NATIONAL RESEARCH COUNCIL OF CANADA, published 2021).)
